Data from article PMC11969024 (2025).

B1: peptide HD2 (from tick evasin EVA4) / CCL8 (biotinylated, synthetic) (parent complex)
chain 1: EEDDYTAYAPLTCYFT
chain 2: QPDSVSIPITCCFNVINRKIPIQRLESYTRITNIQCPKEAVIFKTKRGKEVCADPKERWVRDSMKHLDQIFQNLKP
B2: peptide HD2 (from tick evasin EVA4) / CCL17 (biotinylated, synthetic) (parent complex)
chain 1: EEDDYTAYAPLTCYFT
chain 2: ARGTNVGRECCLEYFKGAIPLRKLKTWYQTSEDCSRDAIVFVTVQGRAICSDPNNKRVKNAVKYLQSLERS

Variants of: B1

**Q.** How did the enrichment turn out when chain 1 Y5L was run?
**A.** -0.265 log2 (difference from the parental peptide)

**Q.** Which enrichment does the source give for chain 1 Y5S here?
**A.** -5.16 log2 (difference from the parental peptide)

**Q.** Which enrichment does the source give for chain 1 Y5C here?
**A.** -7.1 log2 (difference from the parental peptide)

**Q.** How did the enrichment turn out when chain 1 Y5H was run?
**A.** -5.84 log2 (difference from the parental peptide)

**Q.** For chain 1 D3V, which enrichment is on record?
**A.** -3.08 log2 (difference from the parental peptide)

**Q.** How did the enrichment turn out when chain 1 D3Q was run?
**A.** -2.92 log2 (difference from the parental peptide)

**Q.** Which enrichment does the source give for chain 1 D3F here?
**A.** -2.94 log2 (difference from the parental peptide)

**Q.** chain 1 D3W was tested. Which enrichment did it give?
**A.** -2.86 log2 (difference from the parental peptide)

**Q.** With chain 1 L11H as the variant, how does the enrichment read?
**A.** 1.86 log2 (difference from the parental peptide)

**Q.** chain 1 L11W was tested. Which enrichment did it give?
**A.** -0.601 log2 (difference from the parental peptide)

**Q.** chain 1 L11E was tested. Which enrichment did it give?
**A.** 0.712 log2 (difference from the parental peptide)

**Q.** With chain 1 L11F as the variant, how does the enrichment read?
**A.** -0.0302 log2 (difference from the parental peptide)

**Q.** chain 1 L11N was tested. Which enrichment did it give?
**A.** 0.274 log2 (difference from the parental peptide)

Variants of: B2

**Q.** How did the enrichment turn out when chain 1 ENDDYTAYAPLTCYFT [chain 1 E2N] was run?
**A.** -1.61 log2 (difference from the parental peptide)

**Q.** chain 1 EHDDYTAYAPLTCYFT [chain 1 E2H] was tested. Which enrichment did it give?
**A.** -1.27 log2 (difference from the parental peptide)

**Q.** chain 1 EKDDYTAYAPLTCYFT [chain 1 E2K] was tested. Which enrichment did it give?
**A.** -0.857 log2 (difference from the parental peptide)

**Q.** chain 1 EMDDYTAYAPLTCYFT [chain 1 E2M] was tested. Which enrichment did it give?
**A.** -1.82 log2 (difference from the parental peptide)

**Q.** How did the enrichment turn out when chain 1 EEDDYTAYAPLTCYFP [chain 1 T16P] was run?
**A.** 1.33 log2 (difference from the parental peptide)

**Q.** How did the enrichment turn out when chain 1 EEDDYTAYAPLTCYFV [chain 1 T16V] was run?
**A.** -0.108 log2 (difference from the parental peptide)

**Q.** Which enrichment does the source give for chain 1 EEDDYTMYAPLTCYFT [chain 1 A7M] here?
**A.** 1.3 log2 (difference from the parental peptide)

**Q.** How did the enrichment turn out when chain 1 EEDDYTGYAPLTCYFT [chain 1 A7G] was run?
**A.** 2.15 log2 (difference from the parental peptide)

**Q.** Which enrichment does the source give for chain 1 EEDDYTDYAPLTCYFT [chain 1 A7D] here?
**A.** 0.474 log2 (difference from the parental peptide)

**Q.** With chain 1 EEDDYTEYAPLTCYFT [chain 1 A7E] as the variant, how does the enrichment read?
**A.** -0.527 log2 (difference from the parental peptide)

**Q.** With chain 1 EEDDYTFYAPLTCYFT [chain 1 A7F] as the variant, how does the enrichment read?
**A.** -3.04 log2 (difference from the parental peptide)

**Q.** How did the enrichment turn out when chain 1 EEDDYTAYAPLTCLFT [chain 1 Y14L] was run?
**A.** -4.61 log2 (difference from the parental peptide)

**Q.** With chain 1 EEDDYYAYAPLTCYFT [chain 1 T6Y] as the variant, how does the enrichment read?
**A.** 0.0769 log2 (difference from the parental peptide)

**Q.** With chain 1 EEDDYAAYAPLTCYFT [chain 1 T6A] as the variant, how does the enrichment read?
**A.** 1.8 log2 (difference from the parental peptide)

**Q.** For chain 1 EEDDYVAYAPLTCYFT [chain 1 T6V], which enrichment is on record?
**A.** -4.25 log2 (difference from the parental peptide)

**Q.** Which enrichment does the source give for chain 1 EEDDYLAYAPLTCYFT [chain 1 T6L] here?
**A.** -1.57 log2 (difference from the parental peptide)

**Q.** For chain 1 EEDDYPAYAPLTCYFT [chain 1 T6P], which enrichment is on record?
**A.** -4.51 log2 (difference from the parental peptide)

**Q.** chain 1 EEDDYHAYAPLTCYFT [chain 1 T6H] was tested. Which enrichment did it give?
**A.** 0.317 log2 (difference from the parental peptide)

**Q.** How did the enrichment turn out when chain 1 EEDDYTAYAPLTCYLT [chain 1 F15L] was run?
**A.** 0.236 log2 (difference from the parental peptide)

**Q.** With chain 1 EEDDYTAYAPLTCYTT [chain 1 F15T] as the variant, how does the enrichment read?
**A.** 0.347 log2 (difference from the parental peptide)

**Q.** For chain 1 EEDDYTAYAPLTCYRT [chain 1 F15R], which enrichment is on record?
**A.** 0.0833 log2 (difference from the parental peptide)

**Q.** Which enrichment does the source give for chain 1 EEDDYTAYAPLTCYYT [chain 1 F15Y] here?
**A.** 2.54 log2 (difference from the parental peptide)

**Q.** Which enrichment does the source give for chain 1 EEDDYTAYAPLTCYHT [chain 1 F15H] here?
**A.** 0.105 log2 (difference from the parental peptide)

**Q.** chain 1 EEDDYTAYAPLTCYAT [chain 1 F15A] was tested. Which enrichment did it give?
**A.** 0.597 log2 (difference from the parental peptide)

**Q.** Which enrichment does the source give for chain 1 EEDDYTALAPLTCYFT [chain 1 Y8L] here?
**A.** -8.14 log2 (difference from the parental peptide)

**Q.** With chain 1 EEDDYTAVAPLTCYFT [chain 1 Y8V] as the variant, how does the enrichment read?
**A.** -8.87 log2 (difference from the parental peptide)

**Q.** How did the enrichment turn out when chain 1 EEDDYTACAPLTCYFT [chain 1 Y8C] was run?
**A.** -9.78 log2 (difference from the parental peptide)

**Q.** chain 1 EEDDYTAYAWLTCYFT [chain 1 P10W] was tested. Which enrichment did it give?
**A.** -5.95 log2 (difference from the parental peptide)

**Q.** With chain 1 EEDDYTAYAPLMCYFT [chain 1 T12M] as the variant, how does the enrichment read?
**A.** 1.75 log2 (difference from the parental peptide)

**Q.** For chain 1 EEDDYTAYAPLGCYFT [chain 1 T12G], which enrichment is on record?
**A.** -10.4 log2 (difference from the parental peptide)

**Q.** Which enrichment does the source give for chain 1 EEDDYTAYAPLKCYFT [chain 1 T12K] here?
**A.** -2.78 log2 (difference from the parental peptide)

**Q.** Which enrichment does the source give for chain 1 EEDDYTAYAPLSCYFT [chain 1 T12S] here?
**A.** -3.76 log2 (difference from the parental peptide)

**Q.** Which enrichment does the source give for chain 1 EEDDYTAYAPLPCYFT [chain 1 T12P] here?
**A.** -4.02 log2 (difference from the parental peptide)

**Q.** Which enrichment does the source give for chain 1 EEDDYTAYAPLYCYFT [chain 1 T12Y] here?
**A.** -0.855 log2 (difference from the parental peptide)

**Q.** For chain 1 EEDMYTAYAPLTCYFT [chain 1 D4M], which enrichment is on record?
**A.** -3.6 log2 (difference from the parental peptide)

**Q.** chain 1 EEDPYTAYAPLTCYFT [chain 1 D4P] was tested. Which enrichment did it give?
**A.** -2.13 log2 (difference from the parental peptide)

**Q.** How did the enrichment turn out when chain 1 EEDRYTAYAPLTCYFT [chain 1 D4R] was run?
**A.** -4.61 log2 (difference from the parental peptide)

**Q.** How did the enrichment turn out when chain 1 EEDSYTAYAPLTCYFT [chain 1 D4S] was run?
**A.** -4.05 log2 (difference from the parental peptide)

**Q.** For chain 1 EEDDYTAYGPLTCYFT [chain 1 A9G], which enrichment is on record?
**A.** -7.21 log2 (difference from the parental peptide)

**Q.** chain 1 EEDDYTAYYPLTCYFT [chain 1 A9Y] was tested. Which enrichment did it give?
**A.** -8.18 log2 (difference from the parental peptide)

**Q.** For chain 1 EEDDYTAYEPLTCYFT [chain 1 A9E], which enrichment is on record?
**A.** -1.38 log2 (difference from the parental peptide)

**Q.** Which enrichment does the source give for chain 1 EEDDYTAYWPLTCYFT [chain 1 A9W] here?
**A.** -4.5 log2 (difference from the parental peptide)

**Q.** With chain 1 EEDDYTAYAPWTCYFT [chain 1 L11W] as the variant, how does the enrichment read?
**A.** -0.813 log2 (difference from the parental peptide)

**Q.** With chain 1 EEDDYTAYAPKTCYFT [chain 1 L11K] as the variant, how does the enrichment read?
**A.** 2.96 log2 (difference from the parental peptide)

**Q.** How did the enrichment turn out when chain 1 EEDDITAYAPLTCYFT [chain 1 Y5I] was run?
**A.** -6.15 log2 (difference from the parental peptide)

**Q.** For chain 1 EEDDWTAYAPLTCYFT [chain 1 Y5W], which enrichment is on record?
**A.** 0.266 log2 (difference from the parental peptide)

**Q.** chain 1 EEDDYTAYAPLTTYFT [chain 1 C13T] was tested. Which enrichment did it give?
**A.** -5.42 log2 (difference from the parental peptide)

**Q.** How did the enrichment turn out when chain 1 EEDDYTAYAPLTMYFT [chain 1 C13M] was run?
**A.** -2.5 log2 (difference from the parental peptide)

**Q.** Which enrichment does the source give for chain 1 EEDDYTAYAPLTNYFT [chain 1 C13N] here?
**A.** -8.31 log2 (difference from the parental peptide)

**Q.** For chain 1 EEDDYTAYAPLTSYFT [chain 1 C13S], which enrichment is on record?
**A.** -8.83 log2 (difference from the parental peptide)

**Q.** With chain 1 AEDDYTAYAPLTCYFT [chain 1 E1A] as the variant, how does the enrichment read?
**A.** 0.0959 log2 (difference from the parental peptide)

**Q.** Which enrichment does the source give for chain 1 VEDDYTAYAPLTCYFT [chain 1 E1V] here?
**A.** -0.847 log2 (difference from the parental peptide)

**Q.** Which enrichment does the source give for chain 1 DEDDYTAYAPLTCYFT [chain 1 E1D] here?
**A.** 2.62 log2 (difference from the parental peptide)
